Changes are numbered by the printed parent chain.
T1: ALPL (Homo sapiens, UniProt P05186)
T1 construct: expressed in transfected cells; host or cells: HEK 293T
T1 sequence (P05186 whole entry, looked up): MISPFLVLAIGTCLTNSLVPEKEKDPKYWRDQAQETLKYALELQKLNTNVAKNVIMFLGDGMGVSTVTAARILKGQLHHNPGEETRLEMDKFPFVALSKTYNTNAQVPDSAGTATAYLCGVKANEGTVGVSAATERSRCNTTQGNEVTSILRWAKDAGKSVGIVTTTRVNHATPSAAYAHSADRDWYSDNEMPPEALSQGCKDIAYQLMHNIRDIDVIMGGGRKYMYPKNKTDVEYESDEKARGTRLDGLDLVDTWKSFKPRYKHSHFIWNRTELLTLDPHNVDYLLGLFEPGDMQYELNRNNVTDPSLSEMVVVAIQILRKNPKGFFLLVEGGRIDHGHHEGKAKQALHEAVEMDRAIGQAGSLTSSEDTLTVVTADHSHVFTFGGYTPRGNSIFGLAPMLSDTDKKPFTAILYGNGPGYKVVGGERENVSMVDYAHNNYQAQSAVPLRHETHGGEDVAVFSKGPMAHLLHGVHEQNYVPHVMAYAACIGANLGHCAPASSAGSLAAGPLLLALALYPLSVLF

T2: ALPL (Homo sapiens, UniProt P05186)
T2 sequence (P05186 18-501): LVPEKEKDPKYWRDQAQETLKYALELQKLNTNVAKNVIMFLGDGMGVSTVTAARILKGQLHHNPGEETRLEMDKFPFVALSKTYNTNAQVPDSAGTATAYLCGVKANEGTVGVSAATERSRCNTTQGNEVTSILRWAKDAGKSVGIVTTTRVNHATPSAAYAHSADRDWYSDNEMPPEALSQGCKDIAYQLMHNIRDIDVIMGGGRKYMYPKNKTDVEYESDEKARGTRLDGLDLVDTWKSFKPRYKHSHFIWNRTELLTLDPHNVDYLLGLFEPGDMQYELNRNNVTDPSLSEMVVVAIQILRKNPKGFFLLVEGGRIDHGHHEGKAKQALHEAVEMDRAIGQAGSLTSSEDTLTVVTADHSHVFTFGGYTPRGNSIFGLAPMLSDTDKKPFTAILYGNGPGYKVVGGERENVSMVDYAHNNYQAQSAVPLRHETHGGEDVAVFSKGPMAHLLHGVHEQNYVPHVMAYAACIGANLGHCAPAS

B1: TTM-001: AAV9 capsid variant comprising SPHSKA (SEQ ID NO: 941) in loop IV (protein)
chain 1: MAADGYLPDWLEDNLSEGIREWWALKPGAPQPKANQQHQDNARGLVLPGYKYLGPGNGLDKGEPVNAADAAALEHDKAYDQQLKAGDNPYLKYNHADAEFQERLKEDTSFGGNLGRAVFQAKKRLLEPLGLVEEAAKTAPGKKRPVEQSPQEPDSSAGIGKSGAQPAKKRLNFGQTGDTESVPDPQPIGEPPAAPSGVGSLTMASGGGAPVADNNEGADGVGSSSGNWHCDSQWLGDRVITTSTRTWALPTYNNHLYKQISNSTSGGSSNDNAYFGYSTPWGYFDFNRFHCHFSPRDWQRLINNNWGFRPKRLNFKLFNIQVKEVTDNNGVKTIANNLTSTVQVFTDSDYQLPYVLGSAHEGCLPPFPADVFMIPQYGYLTLNDGSQAVGRSSFYCLEYFPSQMLRTGNNFQFSYEFENVPFHSSYAHSQSLDRLMNPLIDQYLYYLSKTINGSGSPHSKAQNQQTLKFSVAGPSNMAVQGRNYIPGPSYRQQRVSTTVTQNNNSEFAWPGASSWALNGRNSLMNPGPAMASHKEGEDRFFPLSGSLIFGKQGTGRDNVDADKVMITNEEEIKTTNPVATESYGQVATNHQSAQAQAQTGWVQNQGILPGMVWQDRDVYLQGPIWAKIPHTDGNFHPSPLMGGFGMKHPPPQILIKNTPVPADPPTAFNKDKLNSFITQYSTGQVSVEIEWELQKENSKRWNPEIQYTSNYYKSNNVEFAVNTEGVYSEPRPIGTRYLTRNL
chain 2: GSGSPHSKAQNQQT
B2: TTM-002: AAV9 capsid variant comprising HDSPHK (SEQ ID NO: 2) in loop IV (protein)
chain 1: B1 chain 1 with S454H, G455D, S459K, K460S, A461G
chain 2: GHDSPHKSGQNQQT

Key:
ALPL [1] = target: T1, ALPL; type: cell-based; conditions: for fold increase in transduction by luciferase assay in cells expressing ALPL: relative to pCMV6 transfected cells, 24 hours post-transduction; for Luciferase Activity (RLU): Table 30, ALPL transfected cells
Description: Briefly, a transduction assay was performed in that HEK 293T cells were transfected via calcium phosphate transfection with a plasmid expressing ALPL, an AAVR positive control, or a pCMV6 negative control (250 ng or 500 ng of plasmid). AAVR is a universal AAV entry factor involved in AAV transduction. […] At 24-hours post-transduction, GFP expression and luciferase activity were measured to quantify and observe AAV cellular transduction. […] The TTM-002, TTM-006, TTM-018, and TTM-019 capsid variants all comprised the SPH motif immediately subsequent to position 455, numbered relative to SEQ ID NO: 138 and a positive residue in one of the next three residues subsequent to the SPH motif.
To determine if the TTM-001 and TTM-002 capsid variants could bind to both the human ALPL protein (NM_000478.6, which is incorporated by reference herein) and the mouse ALPL ortholog (NM_001287172.1, which is incorporated by reference herein), HEK 293T cells were transfected via calcium phosphate transfection with a plasmid expressing human ALPL, the murine ortholog of ALPL, or a pCMV6 negative control. At 24 hours post-transfection, the HEK 293T cells expressing the ALPL receptor were transduced with an AAV particle comprising the TTM-001 capsid variant, the TTM-002 capsid variant, or an AAV9 control capsid protein, expressing a Luc2-GFP payload. At 24-hours post-transduction, luciferase activity (RLU) was measured to quantify AAV cellular transduction.

ALPL [2] = target: T2, ALPL; type: cell-based; set-up: expressed in transfected cells; host or cells: HEK 293T; conditions: viral genomes, 2 or 3 hours post-incubation, relative to pCMV6
Description: Binding and internalization of AAV capsid variants comprising the TTM-001 capsid variant, the TTM-002 capsid variant, or the AAV9 control capsid was also investigated in cells engineered to express ALPL. HEK 293T cells were transfected via calcium phosphate transfection with a plasmid expressing ALPL, an AAVR positive control, or a pCMV6 negative control. At 24 hours post-transfection, the HEK 293T cells expressing the ALPL receptor were incubated with an AAV particle comprising the TTM-001 capsid variant, the TTM-002 capsid variant, or an AAV9 control capsid protein, expressing a GFP payload. At 2 or 3-hours post-incubation, cells were washed to remove unbound AAV particles and DNA was extracted to quantify viral genomes.

[3] = test system: N-linked galactose on HeLa cells; assay: Transduction of HeLa cells after neuraminidase treatment (Luc2 activity); type: cell-based, human
Description: Primary glycan receptors have been identified for various AAV serotypes, including AAV9 which binds N-linked galactose. In order to investigate the ability of TTM-001 and TTM-002 AAV9 variants to retain this natural glycan binding, HeLa cells were treated with increasing concentrations of Neuraminidase ([…]), which cleaves N-sialic acid and exposes N-galactose. The treated cells were then transduced with AAV particles comprising the TTM-001 capsid variant (AAV_TTM-001), the TTM-002 capsid variant (AAV_TTM-002), or an AAV9 control (AAV_AAV9cntl), transduction was measured by quantification of Luc2 activity (RLU), and data was normalized relative to the no neuraminidase control.

Molecule	fold increase in transduction by luciferase assay in cells expressing ALPL (ALPL [1])	fold increase in binding/internalization in cells expressing ALPL (ALPL [2])	fold change in Luc2 activity (RLU) relative to the no neuraminidase control ([3]; Neuraminidase 5 mU/mL) [fold]	fold change in Luc2 activity (RLU) relative to the no neuraminidase control ([3]; Neuraminidase 50 mU/mL) [fold]	fold change in Luc2 activity (RLU) relative to the no neuraminidase control ([3]; Neuraminidase 500 mU/mL) [fold]	Luciferase Activity (RLU) (ALPL [1])	transduction by immunofluorescence microscopy in cells expressing ALPL (ALPL [1]; GFP, compared to AAV9 control capsid)
AAV9: wild-type AAV9 control capsid [reference compound]	not affected	unaffected	2.7	6.2	11.1	–	–
B1	–	3 fold	5.2	6.7	8.2	93,268 RLU	–
B2	45 fold	6 fold	9.6	12.5	13.9	46,182 RLU	a significant increase in the transduction
